The values below come from article PMC3319252.

Test [1] concerns the target transmembrane (TM) domain of the human nicotinic acetylcholine receptor α4 subunit (human). Description: SEC-MALS. In general terms: SEC sorts molecules by how far they enter the pores of the column.
Test [2] deals with transmembrane (TM) domain of the human nicotinic acetylcholine receptor β2 subunit (human). Description: SEC-MALS.

Consider “transmembrane (TM) domain of the human nicotinic acetylcholine receptor α4 subunit (domain or fragment)”, for which the stoichiometry N (commonly a count of units in the complex or per binding partner) in test [1] was found to be 5. In turn, “transmembrane (TM) domain of the human nicotinic acetylcholine receptor β2 subunit (domain or fragment)” had a stoichiometry N in test [2] of 5.
